Experimental data published in patent US20240034762A1 (YALE UNIVERSITY, published 2024).
No end group written: not given here.

T1: full-length human α-Klotho with a C-terminal HA-tag on HEK293 cells stably co-expressing FGFR1c (human) (UniProt Q9UEF7)
T1 sequence: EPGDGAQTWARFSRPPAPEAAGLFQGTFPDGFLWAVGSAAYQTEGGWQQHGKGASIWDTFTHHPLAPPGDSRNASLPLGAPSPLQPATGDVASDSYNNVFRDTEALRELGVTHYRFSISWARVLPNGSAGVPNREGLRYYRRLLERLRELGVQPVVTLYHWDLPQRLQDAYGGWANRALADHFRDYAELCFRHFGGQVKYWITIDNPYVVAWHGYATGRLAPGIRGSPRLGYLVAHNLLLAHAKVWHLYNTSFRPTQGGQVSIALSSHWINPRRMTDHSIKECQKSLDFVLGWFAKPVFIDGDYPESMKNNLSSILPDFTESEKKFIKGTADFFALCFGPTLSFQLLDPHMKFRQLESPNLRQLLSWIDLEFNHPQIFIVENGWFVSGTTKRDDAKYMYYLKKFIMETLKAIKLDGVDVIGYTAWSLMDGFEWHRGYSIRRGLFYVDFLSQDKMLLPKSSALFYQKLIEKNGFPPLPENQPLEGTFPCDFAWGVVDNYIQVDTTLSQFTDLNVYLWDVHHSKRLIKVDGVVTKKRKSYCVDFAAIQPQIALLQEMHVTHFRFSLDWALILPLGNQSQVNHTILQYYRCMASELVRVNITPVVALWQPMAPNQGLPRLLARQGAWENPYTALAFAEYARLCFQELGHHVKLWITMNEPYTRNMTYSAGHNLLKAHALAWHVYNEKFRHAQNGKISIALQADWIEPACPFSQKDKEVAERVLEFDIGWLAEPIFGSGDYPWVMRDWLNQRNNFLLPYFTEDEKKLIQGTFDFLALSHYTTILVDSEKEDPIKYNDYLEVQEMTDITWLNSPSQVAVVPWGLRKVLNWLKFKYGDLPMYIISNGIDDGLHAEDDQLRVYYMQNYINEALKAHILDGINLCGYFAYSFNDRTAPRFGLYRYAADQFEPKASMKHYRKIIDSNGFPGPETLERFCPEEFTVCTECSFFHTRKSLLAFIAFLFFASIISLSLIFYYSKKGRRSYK

T2: full-length human α-Klotho with a C-terminal HA-tag on HEK293 cells stably co-expressing FGFR1c (human, UniProt Q9UEF7 34-1012)
T2 sequence: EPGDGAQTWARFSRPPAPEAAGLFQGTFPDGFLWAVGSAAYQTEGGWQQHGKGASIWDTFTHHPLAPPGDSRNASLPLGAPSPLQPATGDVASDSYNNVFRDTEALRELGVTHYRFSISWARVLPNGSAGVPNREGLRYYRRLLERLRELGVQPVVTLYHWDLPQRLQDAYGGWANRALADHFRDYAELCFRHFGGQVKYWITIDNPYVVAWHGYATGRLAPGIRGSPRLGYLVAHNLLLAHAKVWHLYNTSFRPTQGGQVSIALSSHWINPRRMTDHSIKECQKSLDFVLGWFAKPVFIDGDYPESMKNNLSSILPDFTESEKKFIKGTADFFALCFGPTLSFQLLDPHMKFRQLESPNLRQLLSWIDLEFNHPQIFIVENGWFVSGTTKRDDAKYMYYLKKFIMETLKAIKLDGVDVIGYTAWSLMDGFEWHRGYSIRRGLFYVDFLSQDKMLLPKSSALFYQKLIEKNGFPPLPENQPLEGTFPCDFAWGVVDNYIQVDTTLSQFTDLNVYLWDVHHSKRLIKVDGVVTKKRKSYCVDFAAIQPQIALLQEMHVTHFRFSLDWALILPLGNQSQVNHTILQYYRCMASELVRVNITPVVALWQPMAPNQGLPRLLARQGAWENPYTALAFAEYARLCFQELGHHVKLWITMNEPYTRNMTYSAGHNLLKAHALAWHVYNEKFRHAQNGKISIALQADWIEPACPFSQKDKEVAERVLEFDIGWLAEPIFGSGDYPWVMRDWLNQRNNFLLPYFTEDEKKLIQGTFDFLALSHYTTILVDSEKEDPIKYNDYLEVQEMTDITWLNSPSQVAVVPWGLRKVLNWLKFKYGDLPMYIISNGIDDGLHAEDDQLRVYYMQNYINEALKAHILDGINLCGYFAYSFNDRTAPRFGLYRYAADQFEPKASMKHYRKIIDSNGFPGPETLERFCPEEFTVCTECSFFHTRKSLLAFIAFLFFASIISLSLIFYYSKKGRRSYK

T3: soluble extracellular domain of human α-Klotho (aa 1-980) fused to a 6xHis tag (human, UniProt Q9UEF7 34-980)
T3 construct: Secreted from HEK293 EBNA cells; also called sKLA; soluble α-Klotho
T3 sequence: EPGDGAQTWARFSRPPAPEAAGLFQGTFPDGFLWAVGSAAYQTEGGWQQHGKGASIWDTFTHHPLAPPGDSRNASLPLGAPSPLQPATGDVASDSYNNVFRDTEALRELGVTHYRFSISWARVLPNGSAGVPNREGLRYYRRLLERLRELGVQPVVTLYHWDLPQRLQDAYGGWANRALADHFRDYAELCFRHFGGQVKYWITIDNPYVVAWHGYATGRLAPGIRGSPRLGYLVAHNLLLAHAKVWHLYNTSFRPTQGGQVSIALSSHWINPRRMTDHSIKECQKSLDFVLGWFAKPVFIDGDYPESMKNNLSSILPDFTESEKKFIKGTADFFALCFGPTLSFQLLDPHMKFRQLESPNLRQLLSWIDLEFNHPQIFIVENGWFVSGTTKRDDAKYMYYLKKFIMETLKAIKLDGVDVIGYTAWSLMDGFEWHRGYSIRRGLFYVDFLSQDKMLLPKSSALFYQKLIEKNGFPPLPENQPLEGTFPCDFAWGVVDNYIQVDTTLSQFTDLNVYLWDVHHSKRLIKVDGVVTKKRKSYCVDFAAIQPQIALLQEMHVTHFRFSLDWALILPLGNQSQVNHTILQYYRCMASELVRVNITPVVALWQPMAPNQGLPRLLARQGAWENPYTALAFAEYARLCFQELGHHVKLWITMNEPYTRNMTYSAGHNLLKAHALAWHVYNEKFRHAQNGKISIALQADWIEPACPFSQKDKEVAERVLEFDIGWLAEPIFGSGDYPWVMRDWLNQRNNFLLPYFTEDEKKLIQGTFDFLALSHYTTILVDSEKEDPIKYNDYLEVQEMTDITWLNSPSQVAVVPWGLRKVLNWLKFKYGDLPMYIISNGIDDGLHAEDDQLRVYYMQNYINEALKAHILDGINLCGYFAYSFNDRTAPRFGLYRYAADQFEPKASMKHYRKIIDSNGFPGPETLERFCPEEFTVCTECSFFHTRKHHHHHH

B1: human IgG1 Fc fused to R1 (aa 180-205) of human FGF23 (Fc fusion, not shown: a dimerising Fc or GST)
chain: SAEDDSERDPLNVLKPRARMTPAPAS
modifications: not fully specified (N-terminus); also: dimeric Fc fusion protein, Fc-R1 junction/linker not given here
B2: human IgG1 Fc fused to the full-length C-terminal tail of human FGF23 (aa 180-251) (Fc fusion, not shown: a dimerising Fc or GST)
chain: SAEDDSERDPLNVLKPRARMTPAPASCSQELPSAEDNSPMASDPLGVVRGGRVNTHAGGTGPEGCRPFAKFI
B3: full length human FGF23 (aa 25-251) expressed in E. coli (ligand)
chain: YPNASPLLGSSWGGLIHLYTATARNSYHLQIHKNGHVDGAPHQTIYSALMIRSEDAGFVVITGVMSRRYLCMDFRGNIFGSHYFDPENCRFQHQTLENGYDVYHSPQYHFLVSLGAAKAAFLPGMNPPPYSQFLSRRNEIPLIHFNTPIPRQHTQSAEDDSERDPLNVLKPRARMTPAPASCSQELPSAEDNSPMASDPLGVVRGGRVNTHAGGTGPEGCRPFAKFI
B4: GST fusion of repeat 2 (R2) of the human FGF23 C-terminal tail (other)
chain: SAEDNSPMASDPLGVVRGGRVNTHAGGTGPEG
modifications: not fully specified; also: fused to glutathione S-transferase (pGEX4T1), vector linker residues not given here
notes: The plasmid limits are used here; also called GST-R2; not shown: glutathione S-transferase encoded by the pGEX4T1 vector (GE Healthcare)
B5: GST fusion of the full-length C-terminal tail of human FGF23 (aa 180-251) (other)
chain: SAEDDSERDPLNVLKPRARMTPAPASCSQELPSAEDNSPMASDPLGVVRGGRVNTHAGGTGPEGCRPFAKFI
notes: Expressed in E. coli BL21-Gold (DE3); also called GST-FL; FL tail of FGF23; not shown: glutathione S-transferase encoded by the pGEX4T1 vector (GE Healthcare)
B6: GST fusion of repeat 1 (R1, aa 180-205) of the human FGF23 C-terminal tail (other)
chain: SAEDDSERDPLNVLKPRARMTPAPAS
modifications: also: GST fusion partner (recombinant, not part of given chain)
notes: Expressed in E. coli; also called GST-R1; not shown: glutathione S-transferase encoded by the pGEX4T1 vector (GE Healthcare)

target: T1, full-length human α-Klotho with a C-terminal HA-tag on HEK293 cells stably co-expressing FGFR1c (human); assay: cell-based or functional assay

B1 and B2 fall in the same range of complete inhibition of FGF23-induced MAPK stimulation in HEK293 cells co-expressing α-Klotho and FGFR1c: 100 to 250 nM for the first, 100 to 250 nM for the second.

target: T2, full-length human α-Klotho with a …; assay: cell-based or functional assay

In the case of B3, the “activation of MAPK response in HEK293 cells co-expressing FGFR1c and α-Klotho; ligand concentration at saturation” value is reported as 0.1 nM.

target: T3, soluble extracellular domain of human …; assay: BLI (Octet); GST fusion captured on anti-GST biosensor, sKLA in solution at 6.25-200 nM, 1:1 fit, mean ± S.D. of 3 experiments
Protocol: Kinetic parameters and dissociation constants of sKLA binding to the various forms of full length FGF23 or GST-fused C-terminal fragments of FGF23 were studied using Bio-Layer Interferometry (BLI). Octet RED96 system (Pall ForteBio) equipped with anti-mouse IgG Fc (AMC) biosensors was used to study interactions between α-Klotho and FLAG-tagged FGF23. Biosensor tips were loaded with anti-FLAG M2 antibody (Millipore Sigma) at 5 μg/ml for 2 min, washed in BLI buffer (25 mM HEPES, 150 mM NaCl, pH 7.5, 0.002% Tween-20, 1 mg/mL BSA) for 60 s, and then loaded with FLAG-tagged FGF23 at 5 μg/ml for 4 min. Alternatively, anti-GST biosensor tips were loaded with 5 ug/ml GST fused with various FGF23 C-terminal fragments for 15 s. Subsequently, ligand-loaded sensor tips were dipped into microplate wells containing different sKLA concentrations, ranging from 6.25 nM to 200 nM in 2-fold dilutions of BLI buffer. After each binding cycle the sensor tips were regenerated with 10 mM glycine (pH 1.5). The collected data were referenced using a parallel buffer control subtraction, and sensograms were fitted globally to a 1:1 Langmuir binding model using ForteBio Data Analysis 10.0 software provided by the manufacturer.
To examine the significance of each of the two FGF23 repeats in α-Klotho binding and receptor activation, bio-layer interferometry (BLI) analyses was applied to measure the kinetic parameters and dissociation constants of each repeat alone or the entire C-terminal tail of FGF23 towards sKLA. To that end, GST-fusion proteins expressing either full length (FL) tail of FGF23 (amino acids […]), the first repeat R1 (amino acids S180-S205), or the second repeat R2 (amino acids […]) were produced in E. coli (FIG. 6) and immobilized on BLI sensors. sKLA was produced in HEK293 EBNA cells and used as an analyte in the BLI measurements (see elsewhere herein).

Point of comparison: B5, Kd 15 nM. Against it:
- B4 — within 1.5-fold, 17 nM
- B6 — within 1.5-fold, 20 nM

Point of comparison: B4, koff 0.0034 s⁻¹. Against it:
- B5 — within 1.5-fold, 0.0031 s⁻¹
- B6 — within 1.5-fold, 0.0041 s⁻¹

Point of comparison: B6, kon 210000 M⁻¹ s⁻¹. Against it:
- B4 — within 1.5-fold, 200000 M⁻¹ s⁻¹
- B5 — the same, 210000 M⁻¹ s⁻¹
